Results published in patent US20240124556A1, “KERATIN BD-3, PREPARATION METHOD THEREFOR AND PHARMACEUTICAL COMPOSITION AND USE THEREOF” (INSTITUTE OF MATERIA MEDICA, CHINESE ACADEMY OF MEDICAL …, priority 2019, published 2024).

How the values were obtained:
[1] = tested on: PLO-induced epilepsy in mice; test: Pilocarpine (PLO) induced convulsive epilepsy in mice; format: in vivo, ICR mice; conditions: for mortality rate / Grade IV seizure rate / Cases of Grade IV / Cases of deaths: PLO 225 mg/kg i.p.; for mortality rate / Cases of deaths: model group 0; for Grade IV seizure rate: model group 80%; for Cases of Grade IV / Cases of deaths: of 10 mice; for Cases of Grade IV: 30 min observation, model group 8; for Grade IV seizure incubation period / Grade II seizure incubation period / Grade III seizure incubation period: mean ± SEM; for Grade IV seizure incubation period: maximum recorded 1800 seconds, model group 894 ± 164; for Grade II seizure incubation period: model group 86 ± 5; for Grade III seizure incubation period: model group 142 ± 6
Protocol: • Animals: male ICR mice; • Drugs: Pilocarpine HCl (PLO, pilocarpine, pilocarpine hydrochloride), Diazepam (diazepam tablets), protein BD-3. • Experiment grouping: • Model group: • Diazepam 2 mg/kg group; • Protein BD-3, 50 mg/kg group, 200 mg/kg group.
The drug was administered once in the afternoon the day before modeling, PLO-225 mg/kg (modeling agent) was injected intraperitoneally 1 hour after the test drug was administered intragastrically on the day of modeling. And positive drug can be administered once 20 minutes before modeling. Observe for 30 minutes after PLO injection.
Observation indicators: (1)Seizure situation: the time of seizures from Grade II to Grade IV; (2)the time to death.
(§1) Seizure grade: Refer to Racine grading standard: Grade 0: No response; Grade I: manifested as twitching of facial muscles or the corners of the mouth; Grade II: can nod; Grade III: twitching of one limb; Grade IV: rigidity or body twitching; Grade V: generalized epilepsy (generalized tonic seizures).
Count the number of Grade IV seizures and deaths in each group of mice in the experiment; Grade II, III and IV incubation period. […] Chi-square test was used for statistics of the number of cases. The mean value and standard error of the incubation period were calculated, and TTEST was used to compare the model group with other groups. P<0.05 was considered as a significant difference.

[2] = tested on: PTZ-induced epilepsy in mice; test: Pentylenetetrazole (PTZ)-induced epilepsy in mice; format: in vivo, ICR mice; conditions: for mortality rate / Grade IV seizure rate / Cases of Grade IV / Cases of deaths: PTZ 65 mg/kg i.p.; for mortality rate: model group 10%; for Grade IV seizure rate: model group 90%; for Cases of Grade IV / Cases of deaths: of 10 mice; for Cases of Grade IV: 15 min observation, model group 9; for Cases of deaths: model group 1; for Grade IV seizure incubation period / Grade III seizure incubation period: mean ± SEM; for Grade IV seizure incubation period: maximum recorded 900 seconds, model group 185 ± 84; for Grade III seizure incubation period: model group 63 ± 6
Protocol: • Animals: male ICR mice; • Medicines: Pentylenetetrazol (PTZ), Retigabine, Protein BD-3. • Experiment grouping: • Model group; • Retigabine 60 mg/kg group; • Protein BD-3, 50 mg/kg group, 200 mg/kg group;
The drug was administered once in the afternoon the day before modeling, On the day of modeling, PTZ-65 mg/kg (modeling agent) was injected intraperitoneal 1 hour after the test drug was administered intragastrically, and the positive drug can be administered once half an hour before modeling. Continue to observe for 15 minutes after injection of PTZ.
Observation index: (1)Seizure situation: the time of seizures from Grade III to Grade VI; (2)Death situation
as §1
Count the cases of seizures and deaths in each group of mice in the experiment; Grade III and IV incubation period. The incubation period of mice that have not attacked to Grade IV is recorded as the maximum of 900 seconds. Chi-square test was used for statistics of the number of cases. Calculate the mean and standard error of the incubation period. Use TTEST to compare the model group with other groups, and P<0.05 is considered as a significant difference.

[3] = tested on: acetic acid writhing in ICR mice; test: Acetic acid writhing in ICR mice; format: in vivo; conditions: for Writhing incubation period: 0.6% acetic acid i.p., model group 204.2 ± 19.6; for Frequency of writhing: within 15 minutes, model group 33.3 ± 2.5
Protocol: • Animals: male ICR mice; • Drugs and reagents: aspirin, physiological saline, glacial acetic acid, protein BD-3. • Experiment grouping: • Model group; • Aspirin 300 mg/kg group; • Protein BD-3, 50 mg/kg group, 200 mg/kg group.
One day after the experimental animals adapt to the environment, Aspirin 300 mg/kg, protein BD-3 50 mg/kg, 200 mg/kg were given orally one hour in advance, and the administration volume was 10 ml/kg; Then, 0.6% acetic acid solution was injected intraperitoneally, and the incubation period (seconds) and frequency of writhing in the animal was observed within 15 minutes.
Calculate the mean and standard error of the data in each group. Compared with the model group by TTEST, P<0.05 was considered as statistically different.

[4] = tested on: yeast-induced fever model in SD rats; test: Yeast-induced fever model of SD rats; format: in vivo; conditions: for Body temperature 2 hours after modeling / Body temperature 8 hours after modeling / Body temperature 4 hours after modeling / Body temperature 6 hours after modeling: 20% yeast s.c.; for Body temperature 2 hours after modeling: model group 37.5 ± 0.1; for Body temperature 8 hours after modeling: model group 37.6 ± 0.1; for Body temperature 4 hours after modeling / Body temperature 6 hours after modeling: model group 37.7 ± 0.1
Protocol: • Animals: 230-260 grams of male SD rats; • Medicines: yeast (OXOID LP0021), aspirin (SIGMA A2093), protein BD-3; • Instruments: electronic balance (SARTORIUS BP121S type), electronic clinical thermometer (CITIZEN CT-513W type). • Experiment grouping: • Normal control group; • Model group: yeast fever model; • Positive control group: Aspirin 300 mg/kg group; • Protein BD-3, 10 mg/kg group, 50 mg/kg group. • Method:
Preparation of experimental animals: After the experimental animals adapt to the experimental environment (temperature 22° C.±2° C., relative humidity 50%±2%) for 1 day. Pre-adaptation to measure rectal temperature at 8:00 and 15:00, rats were fasted and water was taken freely 12 h before experiment, and let the animal to empty its feces before measuring the rectal temperature. Apply petroleum jelly to the electronic thermometer probe before each temperature measurement. Insert the rat rectum 2 cm (can be marked at 2 cm to ensure that the depth of each insertion is consistent), and record the body temperature after the reading is stable.
Subcutaneous injection of dry yeast to replicate rat fever model: The body temperature of the rats was measured before modeling. Qualified rats with a body temperature of 36.2-37.3° C. were selected and randomly divided into groups with 8 rats in each group. After oral administration of aspirin and different doses of protein BD-3, 20% yeast suspension (10 ml/kg) was injected subcutaneously immediately, and the normal control group was injected intraperitoneally with an equal volume of normal saline. The body temperatures of the rats were monitored after 2 hours for a total of 8 hours.
According to the body temperature measured at each time point on the day of the experiment, calculate the mean, standard deviation and standard error of the body temperature of each group of rats. The data of each group was compared with TTEST, and P<0.05 was considered as a significant difference.

[5] = summary statement, no dose given

B1: BD-3: recombinant keratin, amino acid sequence SEQ ID NO:1, expressed in E. coli, band around 43 kD; tested material prepared in Example 4 (protein, listed as Bos taurus)
chain: MSYSCCLPNLSFRSSCSSRPCVPSSCCGTTLPGACNIPANVGSCNWFCEGSFNGSEKETMQFLNDRLASYLEKVRQLERDNAELESRILERSQQKILANKAENARLVVQIDNAKLAADDFRTKYQTELGLRQLVESDINGLRRILDELTLCKSDLEAQVESLKEELICLKQNHEQEVNTLRSQLGDRLNVEVDAAPTVDLNRVLNETRAQYEALVETNRRDVEEWYIRQTEELNKQVVSSSEQLQSYQAEIIELRRTVNALEVELQAQHNLRDSLENTLTETEARYSCQLAQVQGLIGNVESQLAEIRSDLERQNQEYQVLLDVRARLECEINTYRGLLDSEDCKLPCNPCATTNASSVGSCVTNPCTPCGPRSRFGPCNTFGC
Epilepsy Grade IV incubation period vs model group (in words) ([1]; BD-3 50 mg/kg): statistically different from the model group
mortality rate ([1]; BD-3 50 mg/kg intragastric): 0
Grade IV seizure rate ([1]; BD-3 50 mg/kg intragastric): 30%
Cases of Grade IV ([1]; BD-3 50 mg/kg intragastric): 3
Cases of deaths ([1]; BD-3 50 mg/kg intragastric): 0
Grade IV seizure incubation period ([1]; BD-3 50 mg/kg): 1573 ± 138 s
Grade II seizure incubation period ([1]; BD-3 50 mg/kg): 91 ± 6 s
Grade III seizure incubation period ([1]; BD-3 50 mg/kg): 155 ± 12 s
Epilepsy Grade III incubation period vs model group (in words) ([1]; BD-3 200 mg/kg): statistically different from the model group
mortality rate ([1]; BD-3 200 mg/kg intragastric): 0
Grade IV seizure rate ([1]; BD-3 200 mg/kg intragastric): 60%
Cases of Grade IV ([1]; BD-3 200 mg/kg intragastric): 6
Cases of deaths ([1]; BD-3 200 mg/kg intragastric): 0
Grade IV seizure incubation period ([1]; BD-3 200 mg/kg): 1181 ± 203 s
Grade II seizure incubation period ([1]; BD-3 200 mg/kg): 99 ± 5 s
Grade III seizure incubation period ([1]; BD-3 200 mg/kg): 183 ± 12 s
Summary: effect on epilepsy incubation period, PLO model (in words) [1, 5]: can significantly prolong the incubation period of class III and class IV epilepsy in mice
mortality rate ([2]; BD-3 50 mg/kg intragastric): 10%
Grade IV seizure rate ([2]; BD-3 50 mg/kg intragastric): 100%
Cases of Grade IV ([2]; BD-3 50 mg/kg intragastric): 10
Cases of deaths ([2]; BD-3 50 mg/kg intragastric): 1
Grade IV seizure incubation period ([2]; BD-3 50 mg/kg): 162 ± 58 s
Grade III seizure incubation period ([2]; BD-3 50 mg/kg): 75 ± 6 s
Epilepsy Grade III incubation period vs model group (in words) ([2]; BD-3 200 mg/kg): has a tendency to extend the incubation period, but there is no statistical difference compared with the model group
mortality rate ([2]; BD-3 200 mg/kg intragastric): 0%
Grade IV seizure rate ([2]; BD-3 200 mg/kg intragastric): 70%
Cases of Grade IV ([2]; BD-3 200 mg/kg intragastric): 7
Cases of deaths ([2]; BD-3 200 mg/kg intragastric): 0
Grade IV seizure incubation period ([2]; BD-3 200 mg/kg): 327 ± 125 s
Grade III seizure incubation period ([2]; BD-3 200 mg/kg): 62 ± 5 s
Writhing incubation period ([3]; BD-3 50 mg/kg oral): 221.5 ± 28.4 s
Frequency of writhing ([3]; BD-3 50 mg/kg oral): 24.7 ± 3.0 times
Times of writhing vs model group (in words) ([3]; BD-3 50 mg/kg, P<0.05): can significantly reduce the times of writhing in mice
Writhing incubation period ([3]; BD-3 200 mg/kg oral): 189.8 ± 10.4 s
Frequency of writhing ([3]; BD-3 200 mg/kg oral): 29.5 ± 4.7 times
Summary: analgesic effect, writhing (in words) [3, 5]: can significantly reduce the number of writhing times in mice
Body temperature 2 hours after modeling ([4]; BD-3 10 mg/kg oral): 37.0 ± 0.2 °C
Body temperature 8 hours after modeling ([4]; BD-3 10 mg/kg oral): 37.4 ± 0.1 °C
Body temperature 4 hours after modeling ([4]; BD-3 10 mg/kg oral): 37.3 ± 0.1 °C
Body temperature 6 hours after modeling ([4]; BD-3 10 mg/kg oral): 37.4 ± 0.1 °C
Body temperature 2 hours after modeling ([4]; BD-3 50 mg/kg oral): 36.9 ± 0.1 °C
Body temperature 8 hours after modeling ([4]; BD-3 50 mg/kg oral): 37.3 ± 0.1 °C
Body temperature 4 hours after modeling ([4]; BD-3 50 mg/kg oral): 37.2 ± 0.1 °C
Body temperature 6 hours after modeling ([4]; BD-3 50 mg/kg oral): 37.4 ± 0.1 °C
Effect on body temperature of model rats (in words) ([4]; different doses of BD-3 (10 mg/kg, 50 mg/kg), at 2 hours and 4 hours after modeling, P<0.05 vs model group): can significantly inhibit the increase in body temperature of model rats
Summary: antipyretic effect in yeast fever model (in words) [4, 5]: can significantly inhibit the increase in body temperature at 2 hours and 4 hours after modeling
